From the supplement of paper PMC10567573

B1: RAB11A (parent)
chain: AVPTDEARAFAEKNGLSFIETSAL

Variants of: B1
Test: protein stability index of a GFP-peptide fusion (GPS, HEK-293T) (PSI 1-6); higher = more stable
Details: c terminus: a fixed tail appended
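Further: lentivirally expressed fusions sorted by FACS into six bins by GFP to DsRed ratio, PSI derived from sequencing read proportions per bin multiplied by bin number.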

Protein stability index, by site and new letter:
A1: K 2.8 | Y 2.23 | W 1.8 | Q 2.43 | P 2.38 | T 2.55 | N 2.4 | L 2.28 | I 2.57 | V 2.49 | S 2.56 | M 2.41 | R 2.46
R8: P 1.86 | C 2.32 | E 3.25 | W 2.46 | N 2.64 | G 2.63 | V 2.72 | Y 1.99 | A 2.64 | F 1.97 | T 2.84 | S 2.68 | D 2.82 | M 2.4 | I 2.59 | L 2.16 | H 2.7 | K 2.61 | Q 2.66
F18: T 4.32 | G 4.35 | R 4.22 | V 4.35 | D 5.03 | H 4.72 | Q 4.33 | M 3.93 | A 4.62 | W 3.46 | S 4.62 | N 4.47 | K 4.2 | I 3.6 | E 4.57 | P 4.68 | L 4.14 | C 4.29
D5: T 2.52 | P 2.23 | S 2.19 | K 1.79 | N 1.95 | C 1.89 | I 2.04 | R 1.99 | Y 2.15 | A 1.77 | H 2.33 | L 2.41 | G 1.94 | F 1.92 | W 1.49 | E 2.35 | Q 2.07 | M 1.72 | V 2.05
A9: T 2.96 | L 2.45 | S 2.35 | P 2.08 | I 2.33 | M 2.35 | C 1.82 | H 1.97 | D 2.78 | Q 2.62 | G 2.57 | N 2.46 | Y 2.11 | W 2.27 | V 2.45 | R 1.96 | K 2.34 | E 3.13 | F 2.1
T4: W 1.93 | C 1.89 | R 2.02 | N 2.22 | S 2.23 | L 2.79 | A 2.04 | V 1.93 | E 2.75 | G 2.52 | H 2.6 | P 2.43 | F 2.06 | K 2.39 | D 2.84 | M 2.12 | I 2.28 | Q 2.84 | Y 2.11
K13: N 2.43 | H 1.77 | V 2.23 | I 2.09 | L 2.17 | F 2.24 | W 4.07 | P 2.28 | T 2.18 | S 2.9 | M 2.12 | R 2.52 | C 2.38 | G 3.15 | E 2.81 | A 2.57 | D 3.88 | Y 2.49 | Q 2.67
V2: C 2.15 | S 2.48 | K 2.11 | M 2.67 | I 2.18 | R 2.56 | T 2.47 | A 2.51 | W 2.05 | Y 2.49 | N 2.52 | F 2.35 | L 2.48 | E 2.97 | G 2.73 | Q 2 | D 2.74 | P 2.98 | H 2.46
G15: V 2.64 | T 1.7 | D 3.87 | R 2.52 | Q 2.58 | K 2.92 | M 2.02 | E 3.33 | I 2.8 | F 1.82 | L 1.67 | P 2.2 | Y 1.74 | C 2.59 | W 2.3 | A 2.08 | H 2.15 | S 2.06
A11: K 1.96 | T 2.31 | D 3.24 | N 2.5 | S 2.63 | G 1.97 | C 2.32 | Y 2.2 | V 2.65 | F 1.94 | M 2.24 | P 2.33 | Q 2.21 | W 1.9 | I 1.91 | E 2.76 | L 2.32 | H 2.64 | R 2.12
E12: C 2.85 | W 2.08 | N 2.41 | R 2.55 | P 1.88 | V 2.3 | S 2.01 | T 1.46 | A 2.07 | M 1.54 | G 1.9 | Y 1.74 | F 1.69 | L 1.75 | K 1.81 | D 2.54 | I 1.39 | Q 1.77 | H 1.96
S17: C 2.52 | T 3.36 | R 3.08 | D 3.14 | P 4.38 | A 2.53 | I 2.73 | M 2.81 | K 3.23 | G 3.53 | Q 4.02 | L 2.7 | Y 2.97 | N 1.56 | H 3.19 | F 2.62 | V 2.79 | W 2.66 | E 4.3
L16: I 3.85 | W 2.6 | M 3.73 | Q 4.2 | T 4.14 | F 1.91 | Y 3.14 | P 4.08 | K 4.27 | S 4.35 | G 4.35 | N 4.05 | D 4.87 | E 4.73 | R 3.8 | V 3.73 | A 4.51 | C 3.66 | H 4.3
N14: L 2.03 | E 3.54 | V 1.85 | Y 2.17 | W 1.74 | S 2.95 | T 2.39 | R 2.52 | D 3.62 | M 1.92 | H 2.36 | F 2.25 | P 2.44 | Q 2.85 | C 1.71 | I 2.13 | K 2.46 | A 1.96 | G 2.15
E6: I 1.73 | F 1.73 | C 2.13 | M 2.15 | G 1.87 | N 2.24 | Y 1.88 | T 1.71 | D 2.18 | S 2.09 | L 1.6 | H 1.87 | K 1.8 | P 1.74 | R 2.25 | A 1.94 | V 1.83 | W 2.07 | Q 2.52
A7: M 2.05 | I 2.21 | G 2.17 | K 2.19 | T 2.57 | Y 2.45 | F 2.48 | N 2.33 | V 2.25 | S 2.68 | L 2.28 | Q 2.87 | P 2.04 | C 1.83 | E 3.29 | W 2.09 | H 2.43 | D 2.99 | R 2.46
F10: S 2.84 | E 3.81 | T 2.91 | W 2.36 | L 2.33 | Y 2.71 | Q 3.08 | K 2.37 | I 2.44 | R 2.49 | H 2.54 | C 2.43 | P 2.31 | A 2.76 | M 2.27 | G 2.24 | D 3.86 | N 2.9 | V 2.46
P3: G 2.41 | S 2.57 | R 2.07 | E 2.47 | T 2.81 | F 2.23 | W 2.08 | K 2.55 | Q 2.78 | N 2.77 | A 2.61 | C 1.67 | Y 2.23 | M 2.47 | I 2.36 | V 2.14 | H 2.54 | D 3.01 | L 2.59
